Results taken from patent US20170226204A1.
Read-outs that look alike come from different tables or passages of the source.

Experiments:
[1] = molecular target: human CD7 molecule (human) (UniProt P09564); experiment: flow cytometry on H460 cells transfected with pcDNA3.1-CD7
[2] = molecular target: human CD7 molecule (human) (UniProt P09564); experiment: as above; remark: listed apart in the source
[3] = molecular target: human CD7 molecule (human) (UniProt P09564); experiment: flow cytometry on CD7-positive Jurkat cells

human CD7 molecule (human), sequence (P09564 26-240): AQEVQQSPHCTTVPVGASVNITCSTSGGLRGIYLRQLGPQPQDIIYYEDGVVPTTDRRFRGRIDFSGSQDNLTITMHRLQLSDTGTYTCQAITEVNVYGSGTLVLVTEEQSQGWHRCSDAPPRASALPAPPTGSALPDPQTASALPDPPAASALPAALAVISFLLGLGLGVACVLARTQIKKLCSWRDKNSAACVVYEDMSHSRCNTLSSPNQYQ

transfection efficiency (percent of cells stained) [1]: 18.8% | transfection efficiency (percent of cells stained) [2]: 18% | positive rate of CD7+ [3]: 96.6%
Substance: commercial CD7 antibody (BD CD7-PE)
